Laboratory results published in the supplement of paper PMC10567573.

B1: FAM46C (parent)
chain: FDHLQNRLIATKNPEEIRGGGLLK
B2: TPPP (parent)
chain: LCKDCQVIDGRNVTVTDVDIVFSK

Variants of: B1
Assay: protein stability index of a GFP-peptide fusion (GPS, HEK-293T) (PSI 1-6); higher = more stable
Conditions: c terminus: a fixed tail appended
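Note: lentivirally expressed fusions sorted by FACS into six bins by GFP to DsRed ratio, PSI derived from sequencing read proportions per bin multiplied by bin number.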

Row | Variant | protein stability index
1 | L4D | 4.02
2 | L4V | 3.54
3 | L4T | 4.27
4 | L4I | 3.24
5 | L4H | 4.79
6 | L4W | 3.8
7 | L4R | 4.28
8 | L4F | 3.87
9 | L4S | 4.8
10 | L4Q | 4.47
11 | L4N | 4.14
12 | L4G | 5.22
13 | L4A | 3.78
14 | L4M | 4.04
15 | L4P | 4.62
16 | D2Q | 4.32
17 | D2M | 2.17
18 | D2P | 4.23
19 | D2F | 1.89
20 | D2A | 2.78
21 | D2K | 3.24
22 | D2E | 4.18

Row | Variant | protein stability index
23 | D2H | 3.1
24 | D2Y | 2.8
25 | D2S | 4.75
26 | D2R | 3
27 | D2G | 2.82
28 | D2T | 1.93
29 | D2I | 1.04
30 | D2L | 2.33
31 | D2C | 1.72
32 | F1E | 4.33
33 | F1Y | 3.27
34 | F1Q | 4.74
35 | F1P | 4.59
36 | F1D | 5.18
37 | F1L | 4.51
38 | F1I | 3.5
39 | F1T | 4.28
40 | F1N | 4.4
41 | F1C | 2.3
42 | F1V | 4.67
43 | F1G | 3.9
44 | F1W | 3.76

Row | Variant | protein stability index
45 | F1H | 4.47
46 | F1S | 4.09
47 | F1M | 4.39
48 | F1K | 4.45
49 | H3W | 2.99
50 | H3D | 4.52
51 | H3A | 3.72
52 | H3S | 3.17
53 | H3P | 4
54 | H3V | 3.87
55 | H3L | 3.25
56 | H3C | 3.63
57 | H3Q | 3.51
58 | H3M | 3.71
59 | H3I | 3.59
60 | H3N | 3.05
61 | H3F | 2.06
62 | H3E | 4.28
63 | H3R | 3.73
64 | H3G | 3.79

Variants of: B2
Assay: as above
Conditions: c terminus: a fixed tail appended

Row | Variant | protein stability index
65 | D17M | 2.29
66 | D17V | 2.65
67 | D17E | 2.07
68 | D17L | 3.14
69 | Q6Y | 2.4
70 | Q6D | 2.69
71 | Q6K | 2.16
72 | Q6P | 3.16
73 | Q6L | 1.97
74 | Q6C | 2.09
75 | Q6T | 2.7
76 | Q6A | 2.05
77 | D9Y | 2.27
78 | D9W | 1.84
79 | V13T | 2.38
80 | V13I | 2.31
81 | V13E | 3.59
82 | K24G | 2.55
83 | K24R | 2.39
84 | K24E | 3.39
85 | K24Y | 2.06
86 | K24W | 2.25
87 | F22K | 3.94
88 | F22A | 2.5
89 | F22D | 3.96
90 | F22R | 3.31

Row | Variant | protein stability index
91 | C5N | 3.66
92 | C5T | 3.35
93 | C5G | 2.98
94 | V15F | 2.54
95 | V15W | 2.22
96 | V15S | 2.48
97 | V15L | 2.28
98 | V15C | 2.62
99 | L1K | 3.47
100 | L1M | 2.26
101 | L1I | 2.01
102 | L1R | 1.57
103 | L1A | 2.54
104 | V7N | 2.61
105 | V7R | 2.8
106 | V7A | 2.61
107 | V7I | 2.33
108 | T14Y | 2.15
109 | T14A | 2.81
110 | T14L | 1.84
111 | T14S | 2.83
112 | N12Y | 2.66
113 | N12G | 2.48
114 | N12E | 3.88
115 | I20M | 2.5
116 | I20D | 3.46

Row | Variant | protein stability index
117 | C2G | 3.37
118 | C2V | 3.04
119 | C2Y | 2.75
120 | C2Q | 4.18
121 | R11P | 2.57
122 | R11T | 2.35
123 | R11H | 2.15
124 | R11M | 2.16
125 | R11V | 2.05
126 | G10D | 3.35
127 | G10R | 2.51
128 | G10E | 2.55
129 | G10Y | 1.99
130 | G10T | 2.52
131 | G10F | 1.77
132 | V18P | 2.73
133 | V18Y | 2.6
134 | S23N | 2.75
135 | S23L | 1.82
136 | S23Q | 2.6
137 | S23C | 3.21
138 | S23M | 1.84
139 | S23W | 2.31
140 | S23I | 2.1
141 | D19A | 2.77
142 | K3R | 2.15

Row | Variant | protein stability index
143 | K3T | 2.83
144 | K3F | 1.65
145 | K3W | 1.49
146 | I8W | 1.83
147 | I8N | 2.35
148 | I8A | 2.84
149 | I8G | 2.54
150 | I8K | 2.6
151 | D4F | 1.93
152 | D4C | 2.35
153 | D4K | 2.31
154 | V21N | 3.45
155 | V21W | 2.07
156 | V21G | 3.28
157 | V21L | 2.54
158 | V21C | 2.53
159 | V21D | 4
160 | T16I | 3.14
161 | T16S | 2.92
162 | T16G | 2.01
163 | T16Q | 2.54
164 | T16R | 2.44
165 | T16M | 1.48
166 | T16Y | 1.3
167 | T16N | 2.59
